The text below walks through data of patent US20230131339A1, “EPI-X4 BASED PEPTIDES AND DERIVATIVES THEREOF” (Universitaet Ulm, priority 2020, published 2023).

Where a SMILES comes first, the peptide text is derived from it. Where no end group is shown, it is not given here. Side-chain parts run from the residue outwards. [ ]: non-standard residue; d: D form. The star is where a group is joined. DOTA = O=C(O)CN1CCN(CC(=O)O)CCN(CC(=O)*)CCN(CC(=O)O)CC1; Stearoyl = CCCCCCCCCCCCCCCCCC(=O)*; Palmitoyl = CCCCCCCCCCCCCCCC(=O)*; Glu = glutamate linker

The term IC50 denotes the concentration needed to halve the response being measured. The low end stands for greater potency in that assay, the high end for weaker potency in that assay.

For data set [1] the following is noted: mouse, in vivo, iv.
From the text: To do so, the labeled conjugate was intravenously injected into the tail vein of immunodeficient mice, followed by localization and quantification of radioactivity within the body using positron emission tomography (PET).
The target of data set [2] is T1, CXCR4 (Homo sapiens, UniProt P61073).
T1 construct: endogenous in cells; host or cells: SupT1 cells
Description: 12G5-assay | IC50 (nM). The text has this: (§1) Table printed on a drawing sheet, Figure 2
Title: A Truncated Palmitoylated-JM#21
Head of the field: 12G5-assay | IC50 (nM)
First copying reader's note: The table is the legend of the plot in panel A; the first column also carries the plot symbols, which are not copied.
Where the first naming reader finds the target: passage: Values determined by the competition assay represent the potency of a compound to compete with an antibody that specifically binds to the binding pocket (ECL2) of CXCR4

Data set [3] addresses T1, CXCR4. Description: 12G5-assay IC50 (nM).
From the text: as §1
Title: B Truncated Palmitoylated-JM#21 N-terminally modified
Head of the field: 12G5-assay IC50 (nM)
First copying reader's note: The table doubles as the legend of the antibody competition plot beside it; the plot symbols before the names are not copied.
Where the first naming reader finds the target: passage: compete with an antibody that specifically binds to the binding pocket (ECL2) of CXCR4

The conditions of data set [4]: s9, 8 h.
Description: Further, the stability of peptides in human S9 liver fractions (in the presence of cofactors) was tested (FIG. 12). […] To simulate and predict hepatic metabolic clearance, peptides were added to human S9 liver fractions. […] For each peptide, three independent experiments were performed.
Stability assay in human S9 liver fractions. Pooled human liver S9 fractions were obtained from Thermo Fisher Scientific at a total protein concentration of 20 mg/ml. Fractions were stored in 25 μl aliquots at −80° C. For stability experiments, they were diluted to a final concentration of 0.5 mg/ml in Tris buffer. Cofactors (or buffer) were added immediately before start of the experiment (NADPH: 1 mM, UDPGA: 0.5 mM, GSH: 2.5 mM, PAPS: 0.05 mg/ml, Sigma Aldrich). The reaction was started by adding peptides or compounds at a concentration of 20 μM to the mixture and gentle agitation at 37° C. Determination of enzymatic stability was performed as described for plasma.
The test system of data set [5] is CXCL12 induced migration of T-cells. Description: Migration assay (transwell, Jurkat cells). It counts as cell-based. As to conditions: 30 nM peptide.
Data set [6] is described as follows: Small animal SPECT/CT and PET/CT imaging (total body distribution). It is filed as in vivo, Balb/c mice. As to conditions: ^68Ga-labeled, tail vein, 1 h p.i. The protocol:
SPECT/CT: The total body distribution of [^177Lu]Lu-Pentixather was compared to [^177Lu]Lu-DOTA-K-JM #173 and [^177Lu]Lu-DOTA-K-JM #235. Healthy Balb/c mice were injected into the tail vein with 15-20 MBq ([…]) of ^177Lu-labeled complexes and SPECT/CT images was acquired 4 h post injection (p.i.). For acquiring the images, mice were euthanized by CO2 inhalation after 4 hours, measured in a suitable dose calibrator and imaged supine, head first, using a SPECT/CT system dedicated to imaging small animals (NanoSPECT/CTTM Bioscan Inc.). The images were reconstructed using proprietary HiSPECT iterative reconstruction and fused with CT images using proprietary InVivoScope (Bioscan) software.
PET/CT: PET/CT imaging was performed to determine and compare the total body distribution of [^68Ga]Ga-Pentixather with [^68Ga]Ga-DOTA-K-JM #173. Healthy Balb/c mice were injected into the tail vein with 5-6 MBq ([…]) of ^68Ga-labeled complexes and PET/CT images were acquired 1 h p.i. For acquiring the images, mice were euthanized by CO2 inhalation after 1 h, measured in a suitable dose calibrator and imaged supine, head first, using a PET/CT system dedicated to imaging small animals (Molecubes). The images were reconstructed using the Molecubes software and fused with CT images using Vivo Quant. […]

The conditions of data set [7]: mouse, in vivo, iv. This is another data set of the same source.
Description: Peptides were injected into the tail vein of mice. 4 hours post injection, mice were sacrificed and blood taken by heart punctation. Plasma was obtained by centrifugation and tested for remaining activity in antibody competition assay. As control, peptide was spiked into native plasma (ex vivo). IC50 values were determined by non-linear regression assuming 1.8 ml in vivo blood volume. Remaining activity was determined by IC50 (ex vivo)/IC50 (in vivo)×100. The tested peptides included JM #143 (SEQ ID NO.: 54), JM #144 (SEQ ID NO.: 55), JM #192 (SEQ ID NO.: 89), JM #180 (SEQ ID NO.: 77), JM #194 (SEQ ID NO.: 91), JM #235 (SEQ ID NO.: 130), JM #198 (SEQ ID NO.: 95), JM #255 (SEQ ID NO.: 150), JM #257 (SEQ ID NO.: 152) and JM #204 (SEQ ID NO.: 99). […] Shown are data from 2 individual mice measured in duplicates.
In vivo stability assay. 100 μl of a 700 μg/ml stock solution of the peptide in 0.9% NaCl was intravenously injected in the tail vein of C57BL/6NCrl (BL6) mice. 4 hours post injection, mice were killed by cervical dislocation. Mouse plasma was obtained by heart punctation. Blood was 19:1 diluted with 0.16 M NaEDTA and centrifuged at 2000×g for 20 min at 4° C. to obtain plasma. Plasma was stored at −80° C. till remaining peptide activity in the plasma was determined by 12G5 antibody competition assay.
Data set [8] concerns the target T2, CXC chemokine receptor type 4 (CXCR4) (human, UniProt P61073 1-352).
T2 construct: whole, on cells
Description: 12G5-APC antibody competition on SupT1 cells, flow cytometry. The protocol:
To the right of the diagrams, an assignment of the curves to the tested peptides is explained. […] Three independent experiments were carried out for each peptide in each assay. The error bars refer to the standard deviation.
Antibody competition assay. Competition of compounds with antibody binding was performed on SupT1 cells. For that cells were washed in PBS containing 1% FCS and 50,000 cells were then seeded per well in a 96 V-well plate. Buffer was removed and plates were precooled at 4° C. […] The antibody was used at a concentration closed to its determined Kd. 15 μl compounds were then added to the cells and 15 μl antibody immediately afterwards. Plates were incubated at 4° C. in the dark for 2 hours. Afterwards cells were washed twice with PBS containing 1% FCS and fixed with 2% PFA. Antibody binding was analyzed by flow cytometry (FACS CytoFLEX; Beckman Coulter®).
On the technique in general: Flow cytometry measures light scatter and fluorescence of single cells or particles in a stream.

Data set [9] has as its target T3, CXC chemokine receptor type 4 (CXCR4) (human, UniProt P61073 1-352).
T3 chain: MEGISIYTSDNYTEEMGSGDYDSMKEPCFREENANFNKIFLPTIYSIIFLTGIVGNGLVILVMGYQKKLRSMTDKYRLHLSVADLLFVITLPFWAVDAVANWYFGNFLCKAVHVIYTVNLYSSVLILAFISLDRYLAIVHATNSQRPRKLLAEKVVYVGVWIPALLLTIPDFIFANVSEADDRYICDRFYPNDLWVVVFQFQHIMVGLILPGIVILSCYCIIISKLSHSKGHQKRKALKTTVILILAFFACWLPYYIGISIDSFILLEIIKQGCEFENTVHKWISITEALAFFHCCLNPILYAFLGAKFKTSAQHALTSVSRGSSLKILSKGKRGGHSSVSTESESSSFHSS
Description: 12G5 antibody competition.

For data set [10], the target named is T2, CXC chemokine receptor type 4 (CXCR4). Description: antibody competition assay (FIG. 5).
Data set [11] has as its target T3, CXC chemokine receptor type 4 (CXCR4). Description: competition.
For data set [12], the target named is T4, CXC chemokine receptor type 4 (CXCR4) (human), P61073.
T4 chain: T3 chain
Description: competition. The conditions noted are these: chains peptide; modification not given.

Data set [13] has as its target T4, CXC chemokine receptor type 4 (CXCR4) …. Description: cell-based or functional assay.
The target is the same in data set [14]. Description: 12G5-APC antibody competition on SupT1 cells, flow cytometry.
The target in data set [15] is T2, CXC chemokine receptor type 4 (CXCR4). Description: cell-based or functional assay.
The target of data set [16] is T3, CXC chemokine receptor type 4 (CXCR4). Description: competition.
Data set [17] has the same target. Description: competition.
The target is the same in data set [18]. Description: 12G5 antibody competition.

With “C-deferoxamine linked JM #122: JM #122 with deferoxamine conjugated via an additional C-terminal cysteine as (succinimido-propionyl-desferrioxamine) acetate (ILRWSRKLPSVS-{C(succinimido-propionyl-desferrioxamine)}; also: acetate salt)”, in data set [1], the “biodistribution by PET” value is “rapid (5 min post injection) absorption of the peptide by the kidneys and subsequent release into the bladder”.

Consider `CC(C)C[C@H](NC(=O)[C@@H](NC(=O)[C@@H]1CCCN1C(=O)[C@@H](NC(=O)[C@H](CO)NC(=O)[C@@H](NC(=O)[C@H](CCC(N)=O)NC(=O)[C@@H]1CCCN1C(=O)[C@@H](NC(=O)[C@H](CCCCN)NC(=O)[C@H](CCCCN)NC(=O)[C@@H](NC(=O)[C@H](Cc1ccc(O)cc1)NC(=O)[C@H](CCCNC(=N)N)NC(=O)[C@@H](NC(=O)[C@@H](N)CC(C)C)C(C)C)[C@@H](C)O)C(C)C)C(C)C)[C@@H](C)O)[C@@H](C)O)C(=O)O` [EPIX4] (H-LVRYTKKVPQVSTPTL-OH; N-terminus and C-terminus assumed), for which the results for the IC50 in [2] and in data set [3] were 1780 nM and 1460 nM, respectively.

Consider “ILRWSRK(Glu-Ste)-NH2 (ILRWSRK([Glu-Stearoyl])-NH2) [JM #255]”, for which the “remaining activity in human S9 liver fractions after 8 hours” value in data set [4] is “more rapidly degraded compared to their N-terminally modified variants”. Further, in data set [5], the “inhibition of cell migration” value is listed as “almost complete inhibition of cell migration”.

As for `CC[C@@H](C)[C@@H](N)C(=O)N[C@@H](CC(C)C)C(=O)N[C@@H](CCCNC(=N)N)C(=O)N[C@@H](Cc1c[nH]c2ccccc12)C(=O)N[C@@H](CO)C(=O)N[C@@H](CCCNC(=N)N)C(=O)N[C@@H](CCCCN)C(=O)N[C@@H](CCCCNC(=O)CN1CCN(CC(=O)O)CCN(CC(=O)O)CCN(CC(=O)O)CC1)C(N)=O` [[^68Ga]Ga-DOTA-K-JM#173] [metal not drawn] (H-[dI]LRWSRKK(DOTA)-NH2), in data set [6], the “total body distribution, PET/CT” value was “no specific uptake in any organ in vivo”.

“ILRWSRK(Glu-Ste)LPCVS (ILRWSRK([Glu-Stearoyl])LPCVS) [JM #198]”: the “remaining activity in human S9 liver fractions after 8 hours” value in [4] was “more stable than its palmitoylated counterpart JM #143”. Besides, the “remaining activity in plasma in vivo 4 hours post injection” value in data set [7] (4 h) is given as “remained completely active”. In addition, the “remaining activity in plasma in vivo 8 hours post injection” value in [7] (8 h) was found to be 33%. In addition, the “remaining activity in plasma in vivo after 24 hours” value in data set [7] (24 h) is reported as “completely eliminated”.

With ILRWSRKK-NH2 (not fully specified (residue 8)) [JM#191], in data set [8], the IC50 was determined as 1 nM, the “fold more effective binding than EPI-X4” value was over 2000 fold and the “fold more effective than WSC02” value was about 300 fold. Further, the IC50 in data set [9] is 3 nM.

B1: JM#206 (peptide)
peptide: ILRWSRKLPCVSK(DOTA)
notes: JM#21 with DOTA; also called DOTA-K-JM#21
For the molecule B1, the binding result in data set [10] is given as “binds”. For the same molecule, the IC50 in data set [11] came out at 206 nM.

B2: JM#207 (peptide)
peptide: ILRWSRKLPSVSK(DOTA)
notes: JM#122 with DOTA; also called DOTA-K-JM#122
Take B2: the binding result in data set [10] was “binds”. Moreover, the IC50 in data set [11] came to 207 nM.

As to LVRYTKKVPQVSTPTL (modifications not checked) [EPI-X4], the IC50 in data set [12] was 2140 nM; in data set [14], 2500 nM. For the same molecule, the IC50, X4-HIV-1 inhibition assay in data set [13] is 8630 nM. In addition, the reduction of AKT phosphorylation at 10 µM in [13] came out at 40%.

Take ILRWSRKLPCVS [JM#21]: in [15], the “fold effectiveness against WSC02, AKT signaling” value is about 10 fold. The “fold more effective X4-HIV-1 inhibition than EPI-X4” value in data set [15] was about 100 fold. The IC50 was 358 nM in [11], 147 nM in data set [16] and 211 nM in data set [17].

In data set [9], ILRWSRKLK([Glu-Palmitoyl])-NH2 [JM#193] yielded an IC50 of 3 nM.

For the molecule IVRWSKKVPCVS [WSC02], the “IC50, X4-HIV-1 inhibition assay” value in data set [15] came to 310 nM. The IC50 is 350 nM in data set [8], 413 nM in data set [11], 274 nM in data set [16] and 254 nM in [17].

Take ILRWSRKLP-NH2 [JM#114]: in [15], the “IC50, HIV inhibition assay” value is over 150 nM. The IC50 in [18] is 232 nM; in [9], 268 nM.
